This is an account of results in patent US20200277361A1 (PROTHENA BIOSCIENCES, published 2020).

Broadly, the Kd is the concentration at which binding is half-saturated. What is called EC50 (read off the curve) is the midpoint of the concentration-response curve. Low readings indicate greater potency, high ones weaker potency. One may read the koff as a measure of how fast the partners let go of each other. A word on the kon: it is the rate constant with which the complex forms.

The target of test [1] is T1, pH4.0-treated TTR (human, UniProt P02766 21-147). Put plainly: ELISA, pH4-TTR captured on anti-His coated plate.
The target in test [2] is T1, pH4.0-treated TTR. Put plainly: ELISA on pH4-treated TTR captured on an anti-His coated plate, anti-mouse HRP detection, OD450.
Test [3] addresses T1, pH4.0-treated TTR. Put plainly: Sandwich ELISA (pH4-TTR).
Test [4] addresses recombinant human TTR F87M/L110M (human, UniProt P02766 21-147). Put plainly: SPR, mAb captured on anti-mouse IgG chip, TTR F87M/L110M as analyte.

B1: mouse antibody 5A1 (antibody, IgG1, V domains shown)
VH: EVKLVESGGGLVRPGGSLKLSCAASGFTFSNYAMSWVRQTPEKRLEWVASISSGGSTYYPDSVKGRFTISRDNARNILYLQMSSLRSEDTAMYYCVRYYYGQYFDFWGQGTALTVSS
VL: DIVMTQSHKFMSTSVGDRVSITCKASQDVSTTVAWYRQKPGQSPELLIYSASYRCTGVPDRFTGSGSGADFTFTISSVQAEDLAVYYCQQHYSTPLTFGAGTKLELK
notes: also called m5A1; mis-TTR antibody 5A1
As for B1, the figures for the Kd in test [1], in test [3] and in test [4] were 23 nM, 21.3 nM and 7.68 nM, respectively. The “EC50 (read off the curve)” value in test [2] is about 0.3 µg/mL. Moreover, in test [4], the dissociation rate constant (koff) was found to be 0.000469 s⁻¹. In test [4], the kon came to 61100 M⁻¹ s⁻¹.
